Publication PMC4275271, “Development and Characterization of a Novel Fusion Protein of a Mutated Granulocyte Colony-Stimulating Factor and Human Serum Albumin in Pichia pastoris” (PLoS ONE, 2014)
Positions count from the first letter of the chain named.

T1: recombinant human G-CSF receptor (rhG-CSFR), biotinylated (human, UniProt Q99062 25-627, biotin (biotinylated, site not stated))
T1 construct: human granulocyte colony-stimulating factor receptor
T1 sequence (looked up): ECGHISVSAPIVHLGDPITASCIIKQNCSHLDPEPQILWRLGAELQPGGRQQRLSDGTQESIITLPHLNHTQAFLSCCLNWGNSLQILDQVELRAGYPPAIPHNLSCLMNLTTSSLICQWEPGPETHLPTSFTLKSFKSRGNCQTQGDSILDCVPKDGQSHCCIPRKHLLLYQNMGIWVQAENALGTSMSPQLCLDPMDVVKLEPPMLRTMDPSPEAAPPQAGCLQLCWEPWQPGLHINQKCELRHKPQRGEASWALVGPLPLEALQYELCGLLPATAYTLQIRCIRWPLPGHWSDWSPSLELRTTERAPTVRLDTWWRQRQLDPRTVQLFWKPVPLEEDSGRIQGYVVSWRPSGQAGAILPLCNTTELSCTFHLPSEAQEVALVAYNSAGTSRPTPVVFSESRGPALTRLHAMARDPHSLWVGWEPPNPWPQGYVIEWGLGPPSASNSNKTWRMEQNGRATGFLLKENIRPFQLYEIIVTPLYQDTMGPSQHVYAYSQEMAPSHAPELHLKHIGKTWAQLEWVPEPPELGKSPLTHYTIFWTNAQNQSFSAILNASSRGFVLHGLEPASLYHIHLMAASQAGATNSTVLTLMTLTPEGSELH

B1: Human G-CSF mutant (mG-CSF) (ligand, UniProt P09919-2 31-204, looked up)
chain: APTYRASSLPQSFLLKSLEQVRKIQGDGAALQEKLCATYKLCHPEELVLLGHSLGIPWAPLSSCPSQALQLAGCLSQLHSGLFLYQGLLQALEGISPELGPTLDTLQLDVADFATTIWQQMEELGMAPALQPTQGAMPAFASAFQRRAGGVLVASHLQSFLEVSYRVLRHLAQP
notes: human granulocyte colony-stimulating factor with five substitutions; also called mutated G-CSF
B2: recombinant human G-CSF (rhG-CSF) standard (ligand, UniProt P09919-2 31-204, looked up)
chain: B1 chain with A1T, T3L, Y4G, R5P, S17C
notes: human granulocyte colony-stimulating factor, rhG-CSF standard of Amgen; Amgen's rhG-CSF is recalled to be the 174-residue mature form with an added N-terminal Met (filgrastim); also called recombinant hG-CSF standard; source: bought: Amgen, USA

Molecular target: T1, recombinant human G-CSF receptor …
Assay: BLI; biotinylated rhG-CSFR (15 µg/ml) on Streptavidin High Binding biosensors, Octet-QK; HMG, rhG-CSF standard or mG-CSF in solution; global fitting
Conditions: both partners purified

| Binder | Kd | koff | kon |
| --- | --- | --- | --- |
| B1 | 1.2 nM | 1.94e-05 s⁻¹ | 16200 M⁻¹ s⁻¹ |
| B2 | 1.97 nM | 2.24e-05 s⁻¹ | 11400 M⁻¹ s⁻¹ |
